Protease stability score data for 47 sequences are collected here from the NTF2 design screens of Basanta et al. (2020).

A short description of the series: protease stability score; higher = more stable; yeast display proteolysis, trypsin and chymotrypsin.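 Further: relative to predicted unfolded state with 0 unfolded-like and 1 meaning tenfold more protease.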
Sequence “SEDEDFAKKWTDEILTAFLTGDWKLLSDLVDPNVRVIYGEFHFHGREQTIKWLEHHYREIRIHDYKIKHIEVQGEKVIVDGEVDRHYNGRRHRIHTEIIIIIFNGVIREIEFREN” showed a protease stability score of 2.05. Next, “SEDEEDSKEAFRLVEEILITGNEEEIDDMADPHTRVQIGNKIWHGRELFLDWVREHLRRADVVRDVHLTHESAYDGKVELHMKVVIHYGDKTIDTEMVFVSRKIDGKWITHSITMV”: 1.18; “DEWHEYNEKLFELWEKANKTGDERLLRLLIDPHARLHFNGKHFHGREEVARLMTELRVDRFEIKRMEIQGEKLTVEGREDVTQGDFRFESNVNIIFLKINGRWSLERQHSE”: 0.944; “AREEEIVEEMARLMRHLWTTGDEEKIDEMLDPDVRVEWRVNGVHLENHGRDQFIRILRRFSDEWRLRSLHDETFRIQGDKVEVDSRFDVQVNGQRDILETEFHLVVVDGRIRHVEIIIK”: 1.6.

“DDWERLYLHLARLWFELILTGDEETIDKMVDPHTRLEIGDFESHGREELRYLFHHMRSHEIRIRSFDTYGDKAIIDGEIDTIINGRRMIVKIRLHVIIINGRVHSIKVEHE” showed a protease stability score of 1.08. In turn, “DERHDDRNHAIEAFKFMLDTGDWRVYSRNIDPNMRLEIGDKTFHGREELEHHITQIDHHHTHTLTIEHIDRVGDFVDIHITLSVTVIFDGRNETKTFHVDIHLVKIDGKWLIHKESVK” came in with a protease stability score of 0.545.

Regarding “DEEEHVAWKIMEVFLEDLLTGDEDMLNRMADPHVRVIINGRENHGRESFEEFVRQIRIEDTRLKHVEIRTIGNKIHIYVHGELRLNINGKRIDRKTTWIFVIQKYDGRWILRFILIDIH”, the protease stability score worked out at 2.31. In the case of “DEEEEILRRFIEEWLYAELTGDFHVLHELFDPNVRIEINGVDKHGMHIVIKELLEFYRRVKNLRVEFELRDEKRFDGVVIIIGVRRISINGQTHEEETILVIVKVNGRWVMKEIWFN”, the protease stability score was found to be 1.64.

With “SELKEEVDRWAKRFIHAVETGDEDTILKFMDPHVKSSVGEKVHHGREFLIIIWRELRIRHFTVHHIRVDEDHLIIHMEWQGHVNGKEIRLEVDLFIRKVDGVWIMKHIEIR”, the protease stability score turned out to be 2.03. With “SDYEKEVLDYAHTFLHAFLTGNEFILLKLLDPHVRIEIHFDGVDFLRHGRETFSKRAVDHIREWRVEIRLHDLHVVDGVVHLNTRLHVDYGDKHIHITQHITLFVINGRMKTVHIRHE”, the protease stability score is 1.26. “DELEEKIHRWAELFLKMVLTGNEEFFRHLFDPDARSDINGVRVIGREDMDEVLKFWLDHLRFEHWVYTEVRIYDGRMEVHTRHDIDVNGVLYRRQMRIHLDVVDGRVKEASITRE” returned a protease stability score of 1.37. For the sequence “DDEERDVLRIMRIVLKLWKTGNEEKYEHLLDPDVRMEVDGRNLHGRETVSHWLHRLREEIRIDDYKIETVRAQGNKSILHVRTDGIINGQEVRLTEEITIIVINGRIQTFSIHRH”, the protease stability score stood at 0.628.

With “DLDQELREKTIRIELKAWRTGDEDKIKELLDPNTRFIINGRHLIGREAIHILLEQIDHFKDLQPRHVDVINGVVRFDGHMEGTFNGVDQSTKVHIIAWKYNGRWFIESIIII”, the protease stability score was 1.59.

Regarding “DELDKRTREFTRLFLEWEETGDFHTMLNFLDPNARVDVNGVHLIGREKMVEHFLTEHERIDHREWHLRRIHYYDGRSDIDGHITLFVDGQEIHIRVHVIFFVVDGRMHMVEKRII”, the protease stability score worked out at 0.751. The result for “SEWEKDLELALRFVMHAFTTGNWEDLLKFFDPDVRIEVGDKEIHGRHVFFEFLEKLGVKHLRLEIELNHFEIQGDKIHEHGIYRFTYHYNGRVEKKEHDTRVHVTKINGRWYLTHQRVD” reads 0.668; that for “SELEELWRKMVEFQERSNTTGDEKSFLEMLDPDMRIIIGDFEFHGRENAKDYLRRVDHIHHVEYRRVDLQGDKAHIEMHINGHWDGRTHRTDTHLHLRKFNGRWHVEDVQVD”, 1.41; that for “TEEEEEFHRMFELEVRAWRTGDEETIRRLFDPHARIDFNGRDVIGRDEFIKRFQELGVEVHDLKIHNFRIVGDKVHWDIRLDGTFNGKRTKLEIHLYAEKYDGQWFNKTEYYI”, 1.36. The result for “SEEEELHEILLHLLLLMHTTGDEHLLRRLADPNARVDINGREWHGRDLMVKFLVEIRIHRTRIHDERDIDGRVHMETRVDGLWNGVRYTFDTRIHAVKVNGRWLLESYSVE” reads 1.21. For “SEDEHHSREFLRVTEEILQTGDEEKREKNADPHMRFVLVYNGRETIIHGRETVVHFIHEELQRLGWDRFRVETERMSVYNGVVHIDIRIFVGDKTIHWHEHAKKVNGRWVYKSVEIRRE”, the protease stability score stood at 1.03. As for “DEDTELMRHIIERLLRSSKTGDEDSMADLLDPNVRIVNEDERLHGRELASRFMYELRIHHFELTRFKVYDGKIDIDGIHDGEINGVRRRVWVEFISVKVNGKWQIKELRIG”, the protease stability score was 1.35. “DEKYKRVEQAVRIYLELISTGDEEMISHYVDPNVQAEVGDYEHHGMEEFIKVVSRVDYLEHSEWKDWRYVDGRIEIEGHLYGKINGKRDVLDIRIIASKVNGKWRLHKVTIK”: the protease stability score came to 1.41. The sequence “DHREKEVHFMAKWIVEIFQTGDEDMWRHLADPDVRLDIVQGEKRDNNVGREVSEKTLKELRHHWGLERVEVRVDHIDHQGDKARVDGTVNINGVHFKTEIVIIVVDGRFKRVKYIIG” registered a protease stability score of 1.39.

On to “DEWLEIAHRFVEELVRSLLTGDEDTLTKLIDPNVRLNINGQEVVGMTEVNRAWHELRIEDEHIRRIDVQGDYVRIHSQRRGEVNGVHTEFEVVIIISKFDGRWVIKSEHVH”, for which the protease stability score came out at 1.24. In turn, “DTEEKLARDIVRIVSELIFTGNEQDLKRLHDPRVRLEVLFENHYLEFHGWEDYLEWLEEWRNHMRMKEIHVHTLQVYGNKARDEVHTVVHIGDKRIETRMHFIVVVINGRIKYISVHIE” had a protease stability score of 1.9.

Sequence “DEDEKMSHEASRVTLQVLITGDEEAMHRLLDPNARMDYGDKQFHGWEEVSKLTTELLTRLGVDHYHMNDERIYGEKLDLDLTIHVNGRNRKFIIIVRKINGRWLIDSMTFK” showed a protease stability score of 0.576. In the case of “SDSEKVSREAWELMLRDHETGDEEAFQNNVDPHTRIHINGVDYHGWRDFVDLMRELRIEHVTLRDYRVIGNKMHIHGQVHGEIDGRRINMHVTIIARKINGRWILEHSIFV”, the protease stability score was 1.97. “SETHKHWEEVARIIIKALETGDFRLFHKLLDPNARLHHDIGDKRVNNVGREEVVRTLKMWIDRFPNVTIELKDMRVIDGVVHHDESLNINGVTVRVHIEIIVFDGKLEEMRIEYR”: the protease stability score amounted to 1.23. As to “SEQERKVREWTEEEIRWFLTGDEDIWSHFADPNARSVHHIGNKTIHTHGMEDVTRVIRELLQELGADHRTVHELEIQGDKSTVNLEIRIGDKTYEVHIIIIIINGKRKYHIVHFRVQ”, the protease stability score was 0.982.

As to “DEEDRKSERVLKEFLHDVLTGDEHTLNRLADPHVRLEVGDKEDHGREKLAKYMVRADHIEHVELRHHHFQGDKIHLHVKIRENVNGREVIFESIEIWLKIDGRWILDSLIVK”, the protease stability score amounted to 0.091. As for “DHEEHLSHIALRESMEYLETGDPRKYTELMDPNVKLRVDINGKQIEFHGREEASRFMEHVQHEIKGARIETHSEDTQGNKIHMDLKLLINGKESKLIIIALKINGRWLVTSMEVHVK”, the protease stability score came out at 1.88. For “EEDQKMLEMVFRIILDLWITGDFDLIERLLDPDVRLDSKIGDKTVHHHGREEVAKHLFHIRIEDFIIHRVHVQGDKITINGELDGHFNGKRFNSEIHIHYVVINGRIRRLSFEEN”, the protease stability score is 2.2. On to “SDEEEYTRKAIERWIKDFITGNEDLIRKFADPNTRMEWNGKEHHGMELMVKVLKREIHEIRLQKFDVHHVEIYNGRAIVHLKLHGTIDGREETLDVIIFSEKINGQWRVEQLSIR”, for which the protease stability score was 1.39. “SEEEHFAKELHKLFLEWWKTGDEEHLLEFADPDARSEIGDKRHHGREEVSRELLEFRRRIPGVQIRHQHVSVHLIDGKLTTHLHFRVNFNGVEFHETIIYYNDKYNGKWHLKSIIVTIE” returned a protease stability score of 0.954. “SELEKHLEDVASMWLKVIQTGDWDKLFELADPNVRFEQIYGDKKVELHGREEMIEWLRKFMEQMRTEHRIHSMEVQGDKVHLDTRVILDFNGVRIHLETRVIIIVVNGRLHSYSEHVK” displayed a protease stability score of 1.31.

Consider “DDEEKHAHDILRLLFWVLMTGDEEIIRELFDPNVRVHIGDKEIHGWKELSRHTKEMRHHVRDTDEKDRRSDEDEIRLHGELDGELHFDGKRVKHRMDIHIIAVKIDGRWFFKSLYVR”, for which the protease stability score turned out to be 0.868. Turning to “TEEEKELRHLYNRWLKDLQTGDEDSFRHLADPNVRLIVGDKDHHGWETSAQWMRELRERVDHLEIIVDSSHVINGRIESDTTIRLRVGDKTIEYRAEFEIDIVNGKMKRIVVREH”, the protease stability score was determined as 0.998. Regarding “TEEEELEEKIARRFLTIWLTGDEERLRELADPNVRLEIDINGVTLEYHGRDELAHMFDHELKKLGFKHLHLESLRVINGVVHSNVRITFNGQERESKIINIVINGRLHTLILRWE”, the protease stability score stood at 1.41.

Sequence “REEEEHAEYVIRVWERLLETGDEHEVARLLDPEVRLNIDGVDIHGREDIIRWLKHIRIEIEDSDHKRIEVQGEKIHLDGHRKEVIHVGDKKIRREHRIKLELVWIDGKITSLNVVLH” displayed a protease stability score of 1.24. “SEDEQQALEIIRQWVEFVRTGDEDSVRRLLDPNVRYEVNGREFHGRELVVRILWEIVYHLGVKHVDNKVEHMEIQGEFVKVETTMILRYNGRTLYIDTRIIIFKIDGRWVFRSIEEK” registered a protease stability score of 1.63. For “SENHKLSREALEHFLHLVHTGDFEKIYHMLDPNVKSEAENHHDHGMRDVVHLWRTMGIDHIRVHEVRIFENHLDVDMISIVGDKHFRLNIHIRKVNGRWQTELVRVN”, the protease stability score is 1.8. The result for “DEHETDKQLAIDLLIEVIQTGDEHTTRRLADPNVKVVIDGREFHGRDFLARMIHEMRFHRIHVEEVRVIDGVVHSNLRVRGEYNGKHVDTRSSIHIKKVNGRWVIESVLIE” reads 2.04; that for “SEYEEEMRETLELTALYMRTGNEEDMKELMDPDAKIDVGDKHFHGREQVLHVIKHWRSKHIILREVDFQGEYIHSNGQVTTLINGRELDVESRWIILKVDGRWLVHSVLYL”, 0.758; that for “SEEERSAIEFITRWIQAFETGDEDTLHKLADPNMKIWINGRELIGMQRFIRELQEEMTKRGVRIHIRIEDMRVFNGRLHTDGQFKLEVNGVDVFTTTYLLINKINGKWILEHVNIN”, 1.3. In turn, “SEEEDLMRHLTELYIRAFETGDEDHLRKLADPHVRLHVDIDGKRLDFHGMEQTSEWWERMGIDVHHLHHHEFIGDKSHIDSEVVFNGRKRKFEINVVIVNGRIKSERHIFK” had a protease stability score of 0.691. Regarding “SHVEELSHEVTRWVDIALQTGDERVIDEYLDPNARIDVGDKHFIGREEMSEFYSEFSRRVKNLKLSRYHKKDERIIGNKVILHGKLNVNINGRSHEIDTEIVSMKVNGRWLVEKEIVN”, the protease stability score was 0.302.

On to “DEEERQVLLLAKILIHLYYTGDEESFRKLLDPHVRIIWNGRDFVGRENWYELLHRVLRHWRIHHIDIHDFDVQGNKARFHTQIVVDVNGKHIRSHTEVIYVVVNGRVDEIEVIIR”, for which the protease stability score amounted to 2.37.

In turn, “SEETEHIQKVMKDYIELVLTGDEEKWIHLADPHTRLILLFDGKEIHTHGWDRLIKVWQRIMEELGVDKVEIRMERVRSYGDKAESDVESRYNGRTHETEVTILVIDGRIKMVEVRFH” displayed a protease stability score of 1.14.
